Data on 1 sequence can be found in article PMC10779317.

Usually IC50 stands for the concentration that inhibits the measured activity by half.

The target of this series is Dnmt3a-CD (mouse (murine)) (UniProt O88508). Put plainly: competition (inhibition of 30Uf/30Df methylation). To be noted: 20 mM HEPES-NaOH pH 7.5, 100 mM KCl, 1 mM EDTA, 1 mM DTT, 100 uM AdoHcy, 10 nM DNA (60 nM for PWWP); FP temperature not stated; methylation competition at 37 C ….
Sequence of Dnmt3a-CD (mouse (murine)) (O88508 630-908): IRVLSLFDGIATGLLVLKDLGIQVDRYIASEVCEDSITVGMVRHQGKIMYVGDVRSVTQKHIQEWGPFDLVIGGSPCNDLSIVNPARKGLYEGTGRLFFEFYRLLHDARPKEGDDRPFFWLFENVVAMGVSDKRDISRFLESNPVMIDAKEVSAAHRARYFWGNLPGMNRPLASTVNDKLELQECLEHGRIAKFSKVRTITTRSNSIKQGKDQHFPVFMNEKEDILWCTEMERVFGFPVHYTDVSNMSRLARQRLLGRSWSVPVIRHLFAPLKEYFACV

For TGGGGAGGGTGAGGAGTGTGGGGAAGG [27G4-mut], the IC50 worked out at 1.1 µM.
